The subject of the data set is O=c1[nH]c(=O)c2[nH]cnc2[nH]1. The experiment in a line: cells, lysate or membranes. The note with it: labelled compound, H+ symport, MM pH 6.8, 37 °C.

UapA (Aspergillus nidulans FGSC A4): the Michaelis-Menten constant (Km) worked out at 5 ± 2 µM. For “UapA (Aspergillus nidulans FGSC A4; K73A/R133A)”, the Michaelis-Menten constant (Km) came out at 3.6 µM.

The Km is the concentration of substrate that gives half-maximal velocity.
